# Measured values reported in the DeepSol protein solubility set.
# Assay: soluble on expression in E. coli; label from the status in PepcDB or PDB records
row,Sequence,soluble on expression in E. coli
1,KVGFKIGGGMEYGFNEIWSLQPSLFVSSKGAKKDELSVNAVYLELPVMAAARFKVADNTNIVLSAGPYFACGIAGNSKVDLGKGRLEVDTFGDDGLLKRGDVGLGIGVAAEFGKIIAGLDGQFGFVDVMDNVNGKNLNLSISVGYKF,not soluble
2,KYIDRAGKLAYDSHIAYHRIKGLSQTVLERVQEAVVVINAEGLAVLFNRKAKDLFPALEIGRRAGLSDSAAELWDQASPHTFEYVLGTPGLNAGIRAVPVNKGSDKLLILYIRPQSEIQAEALSVKLAALGQLTANLAHEIRNPMSAIRHANDLLRENMEAGAADPFNAKLCKIIDGNICRIDKMLEDISSLNKRNKTERETIGLIPFWEEFKQEFLLGHPDAADCIRPDIQGGSPTAYFDPAHLRQIMWNLANNAWRHSRKQPGSISVTIRPAQKNTVCILFADRPKCRNTCSNPFTPRRKTAPASGCMSPANWRTPISAI,not soluble
3,KYNMGNANYRIQKELHNFLNNPPINCTLDVHPNNIRIWIVKYVGLENTIYANEVYKLKIIFPDDYPLKPPIVYFLQKPPKHTHVYSNGDICLSLLGDDYNPSLSISGLVLSIISMLSSAKEKKLP,soluble
4,LAAQMEQTDIELLWKQLEQTPGAQVTVSLEERTVTCEGNVYPFFVDDYTRWRLMEGLDDVGLTLRKEAEIAAFEARRPSFKPVTQ,not soluble
5,LAGLALAATLLATGKRPVPDQLAGYHETTLSVGHRDVPVSLHIWYPAAQDGTAELVGQNALFYGQYVLRDAKPAPGAHPVVVFSHGSGGNANNHGWLATELARQGMIVVAPNHPGTMSRDSDPHRTPHIWERARDLHAILDSLETNPPLGMQPDMDRVASAGFSLGGFSALSIAGVRVSKAAFIDYCDRHAGEFDCGWMQAASVDFAAIDPAAYEADYRDPRIKATVSIDPALPQAMTGDSLTAATLPILLVSLGQGEEVPPATRVDAMARQMPQARLVETPGAWHFSFLSECSTLGWIIIGLMGEENICSDIGMRDRGVLHEELKAVISTFLS,not soluble
6,LAMEVGSDSITLTSANTSADAKSVQLFEDFSCSHCSELSLATDADMKTQIEDGNLVVEIKPLNFLDRENIDGHSTHALAAALAVADSNDATLYWNFRAFLMEDQSEIYNQWSDDDFADGVEALGADSSVVDAIRNGDNIQRAYDLATANGEELTEETGSL,not soluble
7,LAQPAMAMVGSRNATPQGLANADAFAEAASNAGFCIISGLAQGIDTAAHQGGLRGASSSMAIVGTGLDLVYPSRNHELAHKLANEGGLISEFPLGTPAISRNFPRRNRIISGMCHACLVVEATLYSGSLITARLALEQGREVMAIPGSIHSPLSKGCHALIKQGAKLVENIQDILDE,not soluble
8,LAQRAGILCREFAIGFGPKIFSFKKNETVYTIRLLPVGGFVRMAGEDPEMIEVKPGYTVGLLFNKEDQVEKVIINQKEKYPDALVIEVETADLEHDMKITGYEQGKEDELSSFTVSETSFFIVDGEEVQIAPYNRQFGSKPVWQRIKA,not soluble
9,LARSMACNSETLSELSFALTVGQKANDCDWFVGNSLIVRLLDMTGELNQKNVYTNRGASGIDGLVATAVGVQLANDKPLLALVGDTSLLYDLNSLALLKQATQPMVVVVMNNDGGGIFDLLPVNEKKKDDFYRMPHQLEFSHAAAMFGLSYHRPETLSCAMSMINDGLEKGIHLIEINTPAGQSGEELTRLFQTIQHAALF,not soluble
10,LESYLLDSERSKVIREMNETYTEFNYKETKKNLEGLASSLEHKYLVEASSLDEGLDEILTLHRLKVPGLLRISFLTTNLIELARETARDIMGRVRGWSKGNQVLRWLSCVFLHARNSLSK,not soluble
11,LGFFNRIEKTEKDKSQIDFGSIHGTGWLIDWKEVDKKDKKANKFTVYLATNLHVIQALKNREDHPPYNQFDINFVRTVDFRIGKYTDVKQFVAPS,not soluble
12,LIEGSERLSGLTDVDEVIKDLSRLLRKLVKTRWIAVYFFDRERRDFAPARSTGLPASFLPVFREMPLAPDKIPLLKSMLRKRQHLMLTDPGSSDLLTPKLRKLLRNLCVLAVPMVVRTQVIGAVFMARTRDNPPFSDAETAIIRDLVSHAALVVSHMQLFDE,soluble
13,LITFRCRSYANVTMFGDIALEMIKMMGHSGTVPGSISAQDVPDALSKLTSALSAKNAAEENLPTDVDVDEKEEQVEPAVSLGRRAFPLIELLKSAIKEECEVMWD,not soluble
14,LITMNYNSPTIGMHQNLTIILPEDVTFFDSSTTAKHLKSMLLLHGLSSDETTYIRYTSIERYANEHQLAIIMPNVDHSGYANMVYGHSYYDYILEIYEYVHQILPLSRKREDNFIAGHSMGGYGTIKFALTQSDKFAKAAPLSAVFEAQRFIDLDWTDFSPQSITGNNTQIKGTELDTYYLLDQAIDANVDIPELFIMCGKEDFLYHDNLQFIETLNKKGVSYKFEDGPGNHDYAYWDRAIKRAIEWFVQ,not soluble
15,LKAVNAKKDAKKIDFYEDFSCPHCAELGEVTDGPMTKAIENGDIVVNLRILNFLDRDGDDGNSTKAGAAALAVAQSGDWETYWNYRALLMKEQKNIYGKWGDNDFADVAKSLGASDEVTQKIREGGAKEDFRKFAEANSKKLEKDGGSVSSPRVFIDGKEVKNGIETWVEQATS,not soluble
16,LKLKDRVKLFLTPQNALFEVLQKYSEDFLNGEEVVKDNFKIDTAAAMSFSAVFACNRVLSETLASCPIMLYEKDDKGNRRQVTDTAEYGVLHYAPNAEMTPVQFKEFGMTNINLGGNFIAQKVFNMHGELLELRPIAWDRVRIDIDKSTGRLLYYIDGKQEPKTRDEIFHIPGLTLDGYIGITPLSYAALTIDIGLSQDTFERNFYHNRASTSGIFQYPNELSDEAFQRLKKDIKKNYTGLSNAGVPMILEGGGQFKEITMKLTDAQFLESKRFRIEDVCRIFRVPLHLVQDLTRSTNNNIEHQSLEFIVYTMLPWFKKWEENLNLQLLSKESRRKNRYFEFNISGLLRGDIKSRYEAYAQGRQWGWLSVNDIRRLENMNPIDNGDRYLEPLNMSEAGKQEEQLKALREEIFNMINERK,soluble
17,LKQQQQQQQQQQQQQQQQQQQQQQQQQQQQQQQQQQQQQQQQQQQQQQQQQQQQQQQQQQQQQQQQQQKSQNRTKQEQGQQSQNQQDAENKKEKQESEHKAKQQKAETEVEKQGEQKKGEPMQAQAQPEKSHQDDPEFRRLEAVESARDPSFLIRAQMQLQAQQKQRPQQSQKEW,not soluble
18,LKYMYKIDDDKKYILYCPTWRGNQRKEVTQINLKDLLKYLPENYEIIVKLHPNESHLRTRYNQIDNRIHCYFNELVDIQELYILSECMITDYSSTIFDYIHLNKPVFILQEDEQQYKQSVGFYFDLFEVGDFLKASLNERMLAKQICSTDYINYSKVVHRLMKQDSSKSSEKLMAEILGEPEYPSSSNCKQQIS,not soluble
19,LLDVMMDIFRRRELDLPCDGGAPQAPRPLKDHPRTPTDRGDADPRDAASHGLGTDRFPDLPTPEQDPRHPYRPGSQTLRPLRPLRPLRPLRPHGR,not soluble
20,LLNQGGEKLLDYYFTKTNYMERENARRYNDLRDYVKKNKLSTEDTDRLAEWVRRQEVVWMQMYRDHILLYDSQFPYMKANPEYHVTGQFYEWNGYEMIDFQDGEALVFLTGMYTYQFFNY,not soluble
21,LMRSPKQKQLEVDHANKTNLKPKAIVNCDLFQLGDYCVFTFKKLSFKQRFKQDFFARSKFSFRS,soluble
22,LQETGAEFKIEVSILKDKATVLIDTTGASLFKRGYRTDKGGAPIKENMAAAILELSNWYPDKPLIDPTCGSGTFCIEAAMIGMNIAPGFNRDFAFEAWNWVGKDLVQSVRDEADSKANYDVALDIMGCDIDSRMVEIAKANAREAGLEDVVKFKQMRLQDLKTDKINGVIISNPPYGERLLDDKAVDILYNEMGQTFAPLKTWSKFILTSDEQFESKYGMKADKKRKLYNGTLRVDLYQYFGERVRRSEARKVN,not soluble
